B1: human MAO-A (Homo sapiens) (protein)
chain: MENQEKASIAGHMFDVVVIGGGISGLSAAKLLTEYGVSVLVLEARDRVGGRTYTIRNEHVDYVDVGGAYVGPTQNRILRLSKELGIETYKVNVSERLVQYVKGKTYPFRGAFPPVWNPIAYLDYNNLWRTIDNMGKEIPTDAPWEAQHADKWDKMTMKELIDKICWTKTARRFAYLFVNINVTSEPHEVSALWFLWYVKQCGGTTRIFSVTNGGQERKFVGGSGQVSERIMDLLGDQVKLNHPVTHVDQSSDNIIIETLNHEHYECKYVINAIPPTLTAKIHFRPELPAERNQLIQRLPMGAVIKCMMYYKEAFWKKKDYCGCMIIEDEDAPISITLDDTKPDGSLPAIMGFILARKADRLAKLHKEIRKKKICELYAKVLGSQEALHPVHYEEKNWCEEQYSGGCYTAYFPPGIMTQYGRVIRQPVGRIFFAGTETATKWSGYMEGAVEAGERAAREVLNGLGKVTEKDIWVQEPESKDVPAVEITHTFWERNLPSVSGLLKIIGFSTSVTALGFVLYKYKLLPRS
notes: purchased Sigma-Aldrich
B2: human MAO-B (Homo sapiens) (protein)
chain: MSNKCDVVVVGGGISGMAAAKLLHDSGLNVVVLEARDRVGGRTYTLRNQKVKYVDLGGSYVGPTQNRILRLAKELGLETYKVNEVERLIHHVKGKSYPFRGPFPPVWNPITYLDHNNFWRTMDDMGREIPSDAPWKAPLAEEWDNMTMKELLDKLCWTESAKQLATLFVNLCVTAETHEVSALWFLWYVKQCGGTTRIISTTNGGQERKFVGGSGQVSERIMDLLGDRVKLERPVIYIDQTRENVLVETLNHEMYEAKYVISAIPPTLGMKIHFNPPLPMMRNQMITRVPLGSVIKCIVYYKEPFWRKKDYCGTMIIDGEEAPVAYTLDDTKPEGNYAAIMGFILAHKARKLARLTKEERLKKLCELYAKVLGSLEALEPVHYEEKNWCEEQYSGGCYTTYFPPGILTQYGRVLRQPVDRIYFAGTETATHWSGYMEGAVEAGERAAREILHAMGKIPEDEIWQSEPESVDVPAQPITTTFLERHLPSVPGLLRLIGLTTIFSATALGFLAHKRGLLVRV
notes: purchased Sigma-Aldrich

What was measured:
[1] = substrate: CN1CC=C(c2cccn2C)CC1; assay: Spectrophotometric MAO-A assay with MMTP as substrate; type: biochemical, human; conditions: other: MMTP as substrate; 37.0 °C
[2] = substrate: CN1CC=C(c2cccn2C)CC1; assay: Spectrophotometric MAO-B assay with MMTP as substrate; type: biochemical, human; conditions: other: MMTP as substrate; 37.0 °C

Protein	Km [1] [µM]	Km [2] [µM]
B1	88	–
B2	–	101

Reference: publication PMC6442233, “SAR and molecular mechanism studies of monoamine oxidase inhibition by selected chalcone analogs” (Journal of Enzyme Inhibition and Medicinal Chemistry, 2019)
